Data set [1] relates to mice. The experiment in a line: Forced swim test (FST). It is filed as in vivo, mouse. The conditions noted are these: acute treatment. Here is the method: Mice were treated as described above before being subjected to behavioral studies. Predictive estimation for anxiolytic properties of tat-cyclotraxin-B was assessed using open field and elevated plus-maze (EPM). Antidepressant-like action of tat-cyclotraxin-B was assessed with the forced-swim test (FST). Effects of acute treatment with tat-cyclotraxin-B on spontaneous locomotion, exploration and reactivity to a novel open field was assessed in plexiglas activity chambers (Med Associates; 45×45×31 cm). Mice were placed into the center of the open field, and activity was recorded for 30 min. Testing took place under bright ambient light conditions to increase the anxiety component of the center areas of the field (defined as the central 15×15 cm portion). Mice subjected to EPM received a double 90-interval i.v. injection of tat-cyclotraxin-B or saline buffer before being placed on the platform of the EPM and assessed for 5 min (26×5×36 cm). The diazepam control group consisted of saline buffer double-treated mice that further received a 30-min i.p. injection of diazepam (1 mg/kg). Mice were assessed for number of entries and amount of time spent in open versus closed arms. The FST procedure was applied to treated mice as described by Porsolt et al. (see ref. [60]). Mice were dropped individually into glass cylinder (height, 25 cm; diameter, 10 cm) containing 10 cm water height, maintained at 23–25°C. Animals were tested for a total of 6 min. The total time of swimming, the number of climbing attempts and the time of immobility was recorded during the last 4 min of the session, after 2 min of habituation. The paroxetine control group consisted of saline buffer double-treated mice that further received a 30-min i.p. injection of paroxetine (2 mg/kg). Behaviors were recorded on videotape and scored blind.

Data set [2] concerns the target T1, brain TrkB receptors (Mus musculus, UniProt P15209).
T1 construct: KIRA-ELISA analysis of brain TrkB receptors from mice; from tissue; host or cells: adult Swiss mouse brain, 300-µm coronal slices
The experiment in a line: In vivo KIRA-ELISA analysis after intravenous injection. The note with it: mice, i.v. 2×200 µg, 90-min interval. Here is the method: Adult Swiss mice (20–25 g) received a double 90-min-interval i.v. injection of saline buffer, tat-cyclotraxin-B (2×200 µg) or tat-empty (2×200 µg). Three hours after the first injection, mice were decapitated, brains quickly removed on ice, 300-µm coronal sections were prepared with a vibratome at three levels (bregma 0.90 mm: caudate putamen/nucleus accumbens level; bregma −1.60 mm: dorsal hippocampus level; bregma −2.70 mm: ventral hippocampus level, see SI Fig. 8A ) and placed in a holding chamber for one hour. Slices were then incubated in Ringer's solution supplemented with tat-cyclotraxin-B or tat-empty (1 µM) in holding chamber saturated with 95% O2, 5% CO2. […] Experiments were stopped by quick removing of the medium on ice. […] Protein concentrations were determined and equal amounts of proteins were loaded in each well for KIRA-ELISA assays (see above). The following antibodies combination was used for phosphorylation assays: TrkB capture with polyclonal anti-TrkB (1 µg/ml); tyrosine phosphorylation quantification with biotinylated anti-phosphotyrosine (4G10, 0.5 µg/ml) and a streptavidin-peroxydase system (1∶4000). The following combination was used for total TrkB quantification: TrkB capture with monoclonal anti-TrkB (1∶1000); total TrkB quantification with polyclonal anti-TrkB (1 µg/ml). Absorbance at 450 nm was read after addition of TMB and acidification. […]
(In general: An ELISA detects its analyte on a solid surface through an enzyme-linked reagent.)

Data set [3] deals with T2, phospho(Y816)-TrkB (Mus musculus, UniProt P15209).
T2 construct: KIRA-ELISA analysis of brain TrkB receptors from mice; from tissue; host or cells: adult Swiss mouse brain, 300-µm coronal slices
T2 sequence (P15209 32-821): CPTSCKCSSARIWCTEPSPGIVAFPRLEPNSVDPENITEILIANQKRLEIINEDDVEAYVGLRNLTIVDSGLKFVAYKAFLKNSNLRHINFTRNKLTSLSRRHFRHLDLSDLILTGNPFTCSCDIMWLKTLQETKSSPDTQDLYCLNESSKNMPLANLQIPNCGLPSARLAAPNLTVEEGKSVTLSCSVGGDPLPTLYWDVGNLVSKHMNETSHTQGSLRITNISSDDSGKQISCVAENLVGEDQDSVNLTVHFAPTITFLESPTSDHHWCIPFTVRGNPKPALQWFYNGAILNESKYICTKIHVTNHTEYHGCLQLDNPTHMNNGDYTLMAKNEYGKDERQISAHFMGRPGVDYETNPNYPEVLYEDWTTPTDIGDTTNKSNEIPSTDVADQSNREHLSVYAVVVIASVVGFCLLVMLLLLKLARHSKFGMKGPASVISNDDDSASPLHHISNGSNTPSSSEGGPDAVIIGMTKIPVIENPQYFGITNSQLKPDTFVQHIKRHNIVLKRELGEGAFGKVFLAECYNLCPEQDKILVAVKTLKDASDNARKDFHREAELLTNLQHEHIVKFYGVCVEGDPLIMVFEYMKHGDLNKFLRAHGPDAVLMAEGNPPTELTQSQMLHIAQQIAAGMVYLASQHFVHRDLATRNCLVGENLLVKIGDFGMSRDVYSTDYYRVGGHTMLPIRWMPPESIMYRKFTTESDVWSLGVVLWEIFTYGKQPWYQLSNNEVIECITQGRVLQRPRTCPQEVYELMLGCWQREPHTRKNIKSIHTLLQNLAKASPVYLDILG
The experiment in a line: Western blot with phospho(Y816)-TrkB antibody after intravenous injection. It is filed as in vivo. The conditions noted are these: mice, i.v. injection, vs tat-empty. As for the experimental part:
Cell lysates were prepared in boiling SDS (2%, w/v) as described previously and subjected to SDS-PAGE. Detection and analysis of eIF4E, MAPK and Akt phosphorylation were done using anti-total and -phospho-eIF4E antibodies (1∶1000, Cell Signaling), anti-total and -phospho-MAPK antibodies (1∶1000, Cell Signaling) or anti-total and–phospho (Ser473) Akt antibodies (1∶1000, Santa Cruz; 1∶1000, Cell Signaling, respectively), respectively. For TrkB expression analysis, cortical neurons were cultured for eight days and TetOn-rhTrkB cells were incubated overnight with doxycycline. Cells were solubilized as for KIRA-ELISA assays and lysates were centrifuged at 14,000×g for 20 min at 4°C. Cleared supernatant was collected and proteins were subjected to SDS-PAGE. Detection of rhTrkB-ECFP and neuronal mouse TrkB were performed using anti-GFP polyclonal antibody (1∶5000, Clontech) and anti-rodent TrkB polyclonal antibody (1 µg/ml, Upstate), respectively. TrkB phosphorylation was quantified using anti-phospho-TrkB antibody (kindly provided by M.V. Chao). Proteins were visualized using appropriate HRP-conjugated secondary antibodies and films were quantified by densitometry.
Supplementary file pone.0009777.s009.tif: Figure S8 Protocol for in vivo KIRA-ELISA analysis after intravenous injection. […] Bands intensity have been quantified (down) Data are mean ± s.e.m. […]
For orientation: Immunoblotting shows a protein as a band on a membrane.

T1 sequence (P15209 32-821): as above

On to “YGRKKRRQRRRCNPMGYTKEGC [tat-cyclotraxin-B]”, for which the FST swimming capabilities entry in data set [1] is given as “not affected”. Moreover, in data set [1] (vs saline), the FST climbing attempts result is on record as “not observed” and the “FST time of immobility” value is “not observed”. Also, the “decrease in TrkB activity, injection” value in data set [2] came out at 50.9±3.1%. Also, the “reduction in phospho(Y816)-TrkB band intensity” value in data set [3] was found to be 37.7±4.7%.

The record behind these values is PMC2841647 (PLoS ONE, 2010).
